The results in this text go back to the domain aggregation screens of Martell et al. (2025).

This series is described as follows: soluble fraction after stress (log2 fold change); higher = more stays soluble; pooled small domains, quantitative proteomics. To be noted: stress: 50 degC. The method in brief: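 The stress applied to every library was 50°C. These custom libraries of small protein domains were pooled and measured at high throughput with quantitative proteomics as the read-out. Aggregation propensity is expressed as the base-two logarithm of the fold change in how much of each protein remains soluble. The higher the value, the more of that protein stays in solution.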

For “HMQQIAVDLSEFKPRLMRDMSSMLAGLYTHDLDLSSLDFSKVANFTFMFRGAIITGTLKMPKI”, the “soluble fraction (log2)” value amounted to 0.00375.

For “HMISVTNRTGTGLNDVKVEVFPVGRQMVFSATVFRVESEATNRFSLGELRGSDGTPFNQRVHRPESI”, the “soluble fraction (log2)” value was determined as 0.188. Then “HMDVLDVADNVNDDMSFADAFAAARSEVGAGGIFYWHGKAYGTYYENEWAGMSEEDKADYWDAVARTTS”, with -0.18.

For the sequence “HMHEGNWTLPNPMPIGTTLTLPEHSRLYISNLAGQRVFETSATSVEIPLLPKGTYLLRLETMNGHTTRKIL”, the “soluble fraction (log2)” value was -0.0423. “HMPGSGELSRRLELAIRDRTAVRVTAAAAGQERSFTLLPVAITSGRLRATDEQAGVQRTLPLSAIVAVEA”: the “soluble fraction (log2)” value is -0.0911. In the case of “HMSVDVEGNQRIPTEQVLSELRDVGVSFGKRVSGLNADTIRNQMIINNDEIAWLGVNVRGSRVYVEITERI”, the “soluble fraction (log2)” value is -0.018. Regarding “HMGPDTVDRTRRFKWVDNEVVVNFGKNAGRTLRDLAENDPGFLRWIVRSDFSDEVRTIANDALMGKFPTRK”, the “soluble fraction (log2)” value amounted to 0.00109. In the case of “HMANTVVMPNLLGKTMTEAKIELKELGIDITLKGSESSSKYSAGQIMEQNIAEGTKVEVGSSVEVTIAGS” it was -0.306. Turning to “HMSTLKSALDEIPGIGAARKRALLNHFGSTRVISSVGVKDLEQVEGVSKKIALLIYGYFHDK”, the “soluble fraction (log2)” value was -2.06. “HMHDYYDSIDAVTHDKSYESNLVFALKLGYTETQLQKALLKLGKKAREDQILEELIRIQKSSKA”: the “soluble fraction (log2)” value is 0.114. On to “HMEKKKVPEVAGQDEAAARNVMTNSGFVVDVEQKEDDNVPAGKVITTAPAGGVEVVEGTKIILYVSKGSN”, for which the “soluble fraction (log2)” value amounted to 0.113. As for “HMIINKFERRKEIQIQFNNQERIKFKDFFLNLSKENIIVSFLILLELVRESLIDFSGTNENDIEFFIK”, the “soluble fraction (log2)” value is -2.3. Turning to “HMYHIYPVADNDTPKLSADRLEYSLSNALLTNKLLNIDEIKKIYNDVILDKDEDGTLELSFKS”, the “soluble fraction (log2)” value worked out at 0.0308.

Regarding “HMDPEEETLKNMQRMLQDSGPLKKTEFSLLAKSLGIAEKKARKLIDRGRGRFWTVESGEQKNTQLVTPIQ”, the “soluble fraction (log2)” value is -0.0247. Then “HMSALAQDGDLVQLQGAGYKSHILRLKAGEVLQTHRGVIQHDAVIGQPWGARLQSHTGSPFYLFQPGLADL”, with -0.522; and “HMLDVGDQLVKKLKDNDSLDFHFVNSKEANKGLKDGDYYMVITIPSNFSKNATTLLDKNPKKMVLNYTTNP”, with 0.0441; and “HMQNFLSITSKEKIDIGNFQLISFKFENNLYDYVISGNKSELLIFQEKTIENNNENIEKITSNF”, with -2.06. In the case of “HMSEYLDIHMAMEKLNRKEQLFVHLRFYEGLTQSEIAQRLFTSQVQISRLEKSVLEKMRQILSK” it was -1.34; in that of “HMNPSIALHDWLQSSEFKGSINLFAAALGMNPRTVEAWVYGRSTPSRRFWAKLYQITNLSRFRL”, -0.836. “HMKIEETLGKTAQVYIPIPQYLSGIGKVTLSVRGSLRELDAMTEEEKIPSNTIVRIVKVQDQVLFVKRA”: the “soluble fraction (log2)” value is -0.74.

With “HMTMVVIMNADATQADIEGVISAIEEKGLEAKVMEGAHQKIVGVIGDKTKLAATPLDAMHGVETTVAIS”, the “soluble fraction (log2)” value is -0.0878. As for “HMGDLEEAVKDFSEAIRLNDSWAEAYANRAVVYAEQGDAAQSDQDAEKARLLGVDQNRLNEMLNAVNS”, the “soluble fraction (log2)” value was found to be 0.0258.

For the sequence “HMTTYTGVVTGSGVNVRSGAGTSYPVVGSKTMGDVVTITETVSADGMIWGKIDIGWISMNYVRM”, the “soluble fraction (log2)” value was -0.75. In the case of “HMTGREIDQLFSVVNDLKAKGVGMVFISHHLDEIARIADSVSVLRDGGFVAEVPASTPEKKLVTLMVGRDI” it was -0.208; in that of “HMSVTIENQINTYFQTRDKISRDELVALIKKDFANWTDNTINIYVSSLQKRGIIHSLSRGMYALGN”, -1.98; in that of “HMDRSAQVLFLEHARSRLPQRIQWAEELAELLSIGIDSAYRRIRGETALTFNEAVSVSRKYDISLDYLFK”, -3.62. With “HMLILDTDGRYVIKRGDSLSEILEKIANGSNINLNLLKRAFVTANPKAFKRANPNWMYANAR”, the “soluble fraction (log2)” value is -0.113. On to “HMELNGVSETAKSVYSIILNNSSTVDDIVIKTKLPAAKVMQALTELELNDAVERKSGGVYALP”, for which the “soluble fraction (log2)” value is 0.13.

Turning to “HMAPDNDELEKAKKIVNAFIEAKAKGLGVVSLGTKMIDAPVVKRAQKIIDQTIVMGKLSLNWQDEFFN”, the “soluble fraction (log2)” value is -0.0351. Regarding “HMGGKAITGGEGEIIIRADKAETVAIYGIDGRLVHRVSTEAGDTKRVSVPAGIYIVKGAKVVV”, the “soluble fraction (log2)” value is at least 0.62.

Consider “HMYAGTWTTESGQWKYRQDDGTYAKGWLQDTDGRWYYFDANGRMLSNTATPDGYQVGEDGAWVNH”, for which the “soluble fraction (log2)” value is -0.196. As for “HMGPRVSAGPGRHRVQPGDTLDDIAARYRVSSRDLMLVNGLRNANHVEAGQTLKLPSNAVIA”, the “soluble fraction (log2)” value was determined as 0.28.

“HMNSGFEVFREVVNQGSFIGAANALGISAPAVSKQIKLLENRLGLLLLYRTTRNVTLTDIGKQLFDTLDNS”: the “soluble fraction (log2)” value is -1.97. In the case of “HMHQLQLDSRSRLHMTGVIEVESFDEATIVLTTTRGTLIVRGENLHLQLLRLDGGEVLVDGTVDSLSYE” it was -1.5; in that of “HMRLHSSGEDYLKAIFILEAQHSSVRSVEVAEYMNVSKASVSHAVALLKKNGFLKMNQDYDLTER”, 0.0124; in that of “HMTSEVLTNATIVKMVKAKLSDDIIIDEINNARVNFDVSPEGIKSLTAQNVTEPVIETMKKAVAAQESI”, 0.479. For the sequence “HMIEDMTINIEERLSLNGDIKKSEYILQYIKPDFIRKVILSPELNKGEIYIYDSKKKVMYLPLFDQVSEEI”, the “soluble fraction (log2)” value is -0.463. Take “HMSEKLTLEAANEAAGMRIDKWLAMQLPELSRSRIEALISGGGVVVNGKNPSKSLKLKGGEQIELEIPE”: the “soluble fraction (log2)” value was 0.0725. In the case of “HMQDFEQNLFDGKSIYDRMLSKFSLHNVDVKQLVAHFKRKDTEQFFADIGRGLITSAQMLGFLQT” it was -0.289; in that of “HMSDIISEIESQVMFKLATYEITNATEKMIEALINSEINDRRTLGFPIPNEQGRIFLVRSIQNKLAV”, -1.05; in that of “HMPSALGDKIRAARKALKLSLEDLAEKVSSSKSYMWELENRDEPNPGADLLMRIAAALNVTTEHLLGP”, -0.0736.

“HMKGSIMIETILKELKKNNKGFNFLLEKFDISEDELMKIINDLIHDKKVFLNSNNKYEIVSD”: the “soluble fraction (log2)” value is -0.238. For “HMAPPDFTTFMRNYQDMVYSTAVRLIGNETQAEDIAQEVFIKAHAHFENLRTSPSAGGWLKTVATNLSIN”, the “soluble fraction (log2)” value is -0.997. As to “HMKTGNIIAVSLVWKGKYYMIRMFFPSAARPSRADVQTEIEKVYPGSKLSSFSVSDYEPGQPLLQV”, the “soluble fraction (log2)” value was -2.31.

As to “HMDPSKLVEVQEPVSMKALSEGLGIKVTELIATFAFKLKIGGKNINSMLSNDEVELVALDLERNIKVV”, the “soluble fraction (log2)” value was found to be 0.164.

For the sequence “HMKKYLIIDAANEKIIFKIIDNNKTYTNDYENSRKNFDRFAVLLFNFLNKNMISFDTIDKAL”, the “soluble fraction (log2)” value is -0.0864. Turning to “HMLDSNILTLIKELKIRHHFTATQTHQLEKVIQQAHALGLDNSEIRSLANSSPSAKSLINDLNQKLEPLRL”, the “soluble fraction (log2)” value is -0.398. “HMDDIHTFVYETETPFDPQKLDRYIGSLTAVYGQDMLRYKGILYFAGVDRRVVFQGVHMLAV”: the “soluble fraction (log2)” value was -0.0916. As for “HMQNEQIAFSKFLQEVDSGRVVQVEIQGNNIKGILSDGSKFYTYSPNYPELVGKLSEKGVNIVASPVE”, the “soluble fraction (log2)” value worked out at 0.0802.

As for “HMESNDSNIEDDFYEGLKSMRKGDLKMSVVFFTRVIEKKPTFAEAWNRRATVYYMLGKFDKSMFDINETLK”, the “soluble fraction (log2)” value was -0.115. “HMQSNIHELQKKLNEALQALSEDHRAVVTMFDIQGMPHAEISKILGVSEGTVRSRLYYAHQQLQGHL”: the “soluble fraction (log2)” value was -1.03. As for “HMRKMNDAVFYVEMSRPKRGYYTATYKLITRNPNSLPEHEITRRFFQMLEETIRKNPPYYLWTH”, the “soluble fraction (log2)” value was -0.328. Regarding “HMFEPLTDREREVLQALADGLSDKEIAERLYISPATVRTHITAILGKLDANSRLQAVVVAARHNLVTL”, the “soluble fraction (log2)” value is -0.0803. In the case of “HMSNQLAVPDVTNMKANAAADRLRQQGLRVELKTESSNTVPRGMAIRTDPAASTMVARGGRVTLIISSGKG” it was -0.000921; in that of “HMALLSNTVDELHAGMRLDSYLFESGLYPSRSFAVKQIEAGKVFLNGDAVTKKTLVSNGDFIVYELEE”, -0.778. Turning to “HMRRARVAGKGHFTGEDAMAVYRELEALFGETETLYLPGHRPFEAVLSKLALIGVPEKNTVPYTFAFVET”, the “soluble fraction (log2)” value was -0.433. For the sequence “HMTLTEQQITDNYKELRKIINDTFSGLRLDKLNHMYDDLEDRMVVAPASSVEHYHNSKVGGYVEHILHVI”, the “soluble fraction (log2)” value is -0.187. For “HMSKFSDTLVYLRKRAGFSQQELADKMEVSRSLVGMYESGQRMPSYEMLEALADIFNVNIDFLTGH”, the “soluble fraction (log2)” value was -0.418. Regarding “HMKKMSFKEAFLKYVEIKDNPYNMESVKMLVSLQPLIVKAYSILGVDKVRRLNYVKTKIQDAIINGD”, the “soluble fraction (log2)” value was -1.9. Take “HMEQINVTIQTEKGRIDKVLSEHLPNHSRSQIQQWLKEKHVTVNGETVRANYKVTAGDEIVVTIPEPEV”: the “soluble fraction (log2)” value came out at 0.206. In the case of “HMHLTRYLHTMIRAANLDDTLDFFVEKLGLIEAYRYSNEAGRFTLVFLSAPDDLESAQSRQAPLVEITYN”, the “soluble fraction (log2)” value was -0.107. Then “HMILNNAKINTELNSLAEFTQRSLDSNTSEIGFYDYKKISYIASFATMKTTNWNVIIRAPINEFMGTVN”, with 0.101; and “HMVSAMLLHKKEILNLLAEEPEALHFASLLRAFGGRHIKNELKQIVDDLVRSGEILRLRGNRYTLPGADN”, with -1.21; and “HMNADSLIGENIRISERVSNMDQTGMAVVHGQEWTVRTRNDNEIIEPGEEAKILAISGVKLIVEK”, with -0.119. Turning to “HMSDKFNALWIILNKLDKKEKVTARSLMEDLEVSERSVYRYITTLQVAGFPVDYDRAVNSYVFSDGYTLK”, the “soluble fraction (log2)” value is -4.08.

With “HMKKIFIDAPLDTMITIPKDTTHHLLTVFRHKMEKPVLVGGSDGRTGVYQIQDVVDGEASAKLVGDIQ”, the “soluble fraction (log2)” value was 0.514. With “HMKEEVMVPNVVGKELSAALLEMQVKELYPKLQLKYSNFVDDKGTVLEQSPPAGSIVKAGRRINLVVSRGA”, the “soluble fraction (log2)” value worked out at 0.144. Then “HMLLFNPGEVLKGFVLQSGTNNRVLLQIGDSRVIADTQTPLKAGEQLVLRVEETGPKTILQILG”, with 0.101.
